Measurements taken from US20090028872A1 (Bristol-Myers Squibb, published 2009).

T1: human CD70 expressed on the cell surface (human, UniProt P32970 1-193)
T1 sequence (looked up): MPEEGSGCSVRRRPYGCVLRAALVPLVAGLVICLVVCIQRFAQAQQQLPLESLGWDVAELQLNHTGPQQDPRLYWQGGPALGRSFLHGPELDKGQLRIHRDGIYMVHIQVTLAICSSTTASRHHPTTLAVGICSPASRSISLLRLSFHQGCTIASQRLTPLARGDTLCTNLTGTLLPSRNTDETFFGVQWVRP


How the values were obtained:
[1] = target: T1, human CD70 expressed on the cell surface; assay: cell-based or functional assay
[2] = target: T1, human CD70 expressed on the cell surface; assay: flow cytometry titration on A498 cells, PE anti-human IgG
Procedure: Binding of the anti-CD70 human monoclonal antibodies was assessed by incubating 5×10⁵ cells with antibody at a starting concentration of 50 μg/ml and serially diluting the antibody at a 1:3 dilution. The cells were washed and binding was detected with a PE-labeled anti-human IgG Ab. Flow cytometric analyses were performed using a FACSCalibur flow cytometry (Becton Dickinson, San Jose, Calif.).

[3] = target: human CD16 on effector cells (human, UniProt P08637 17-254); assay: cell-based or functional assay
human CD16 on effector cells, sequence (P08637 17-254): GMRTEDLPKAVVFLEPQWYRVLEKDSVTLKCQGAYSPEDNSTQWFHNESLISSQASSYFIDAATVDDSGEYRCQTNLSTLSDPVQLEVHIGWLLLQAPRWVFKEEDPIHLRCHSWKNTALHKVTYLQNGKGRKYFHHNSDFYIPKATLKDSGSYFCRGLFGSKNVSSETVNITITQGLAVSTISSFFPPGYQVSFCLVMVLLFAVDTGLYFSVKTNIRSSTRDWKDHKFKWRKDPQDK

Row | EC50 of decrease in ^3H-thymidine incorporation, Hum-Zap internalization assay, 786-O cells [1] [nM] | EC50 (read off the curve) [2] [nM] | amount of anti-CD16 3G8 needed to reverse inhibition, 2H5NF against 2H5 [3] [fold] | Binder
1 | 0.942 | ~7 | – | anti-CD70 human monoclonal antibody 2H5 (antibody, V domains shown, Fully human IgG with kappa light chain, from a hybridoma; human IgG1 isotype controls were used; also called HuMAb 2H5) VH: QVQLVESGGGVVQPGRSLRLSCAASGFTFSSYIMHWVRQAPGKGLEWVAVISYDGRNKYYADSVKGRFTISRDNSKNTLYLQMNSLRAEDTAVYYCARDTDGYDFDYWGQGTLVTVSS VL: EIVLTQSPATLSLSPGERATLSCRASQSVSSYLAWYQQKPGQAPRLLIYDASNRATGIPARFSGSGSGTDFTLTISSLEPEDFAVYYCQQRTNWPLTFGGGTKVEIK
2 | – | – | ~1000 | non-fucosylated anti-CD70 human monoclonal antibody 2H5 (antibody, V domains shown, antibody lacking in fucosyl residues (expressed in FUT8-deficient CHO cell line Ms704-PF)) VH: QVQLVESGGGVVQPGRSLRLSCAASGFTFSSYIMHWVRQAPGKGLEWVAVISYDGRNKYYADSVKGRFTISRDNSKNTLYLQMNSLRAEDTAVYYCARDTDGYDFDYWGQGTLVTVSS VL: EIVLTQSPATLSLSPGERATLSCRASQSVSSYLAWYQQKPGQAPRLLIYDASNRATGIPARFSGSGSGTDFTLTISSLEPEDFAVYYCQQRTNWPLTFGGGTKVEIK
